The values below come from US20100189713A1 (Biogen, published 2010).

Assay [1] has as its target T1, plexin-A2A396E expressed in COS7 cells (mouse, UniProt P70207 35-1894).
T1 construct: whole, on cells; Same point mutation as in NMF454 mice, made by site-directed mutagenesis; also called mutated plexin-A2A396E; NMF454 mutation
As to the kind of experiment: AP-fusion binding assay on transfected COS7 cells. The protocol: This plexin-A2A396E cDNA was then expressed in COS7 cells, and its ability to bind Sema6A-AP was tested using the same method shown in Example 8. See Suto et al. Neuron 53: 5354 (2007).

Assay [2] has as its target T2, full-length mouse plexin-A2 protein, N-terminal myc-tag, stably expressed on L cells (mouse, UniProt P70207 35-1894).
T2 construct: whole, on cells; also called plexin-A2 expressing L cells
As to the kind of experiment: AP-fusion binding to L cells stably expressing plexin-A2, colorimetric AP activity of cell lysates. The protocol: In order to show the binding of Sema6A to Plexin-A2, L-cells that stably express the full-length mouse plexin-A2 proteins were incubated with 250 μl of HBSS with 0.5 mg/ml BSA, 0.1% NaN₃, and 20 mM HEPES, pH 7.0 (HBHA solution) containing 1% FBS and the AP-Sema6Aect-Fc recombinant proteins (the culture supernatant) for 1 h on ice as described in Flanagan and Leder, Cell 63: 185-194 (1990). After removal of the HBHA solution, cells were treated with 250 μl of 10 mM Tris-HCl, pH 8.0, supplemented with 0.1% Triton X-100 to dissolve the recombinant proteins bound to the cell surface. The cell lysates were subjected to colorimetric analysis to measure AP activity as described in Flanagan and Leder, Cell 63: 185-194 (1990) and Flanagan et al., Methods Enzymol 327: 17-35 (2000).
It was shown that the Fc-dimerized recombinant AP-tagged ectodomain of Sema6A bound with a high affinity to plexin-A2 expressing L cells. […] 25: 3628-3637 (2005).

T2 sequence (P70207 other isoform, or with tags, fused parts or gaps): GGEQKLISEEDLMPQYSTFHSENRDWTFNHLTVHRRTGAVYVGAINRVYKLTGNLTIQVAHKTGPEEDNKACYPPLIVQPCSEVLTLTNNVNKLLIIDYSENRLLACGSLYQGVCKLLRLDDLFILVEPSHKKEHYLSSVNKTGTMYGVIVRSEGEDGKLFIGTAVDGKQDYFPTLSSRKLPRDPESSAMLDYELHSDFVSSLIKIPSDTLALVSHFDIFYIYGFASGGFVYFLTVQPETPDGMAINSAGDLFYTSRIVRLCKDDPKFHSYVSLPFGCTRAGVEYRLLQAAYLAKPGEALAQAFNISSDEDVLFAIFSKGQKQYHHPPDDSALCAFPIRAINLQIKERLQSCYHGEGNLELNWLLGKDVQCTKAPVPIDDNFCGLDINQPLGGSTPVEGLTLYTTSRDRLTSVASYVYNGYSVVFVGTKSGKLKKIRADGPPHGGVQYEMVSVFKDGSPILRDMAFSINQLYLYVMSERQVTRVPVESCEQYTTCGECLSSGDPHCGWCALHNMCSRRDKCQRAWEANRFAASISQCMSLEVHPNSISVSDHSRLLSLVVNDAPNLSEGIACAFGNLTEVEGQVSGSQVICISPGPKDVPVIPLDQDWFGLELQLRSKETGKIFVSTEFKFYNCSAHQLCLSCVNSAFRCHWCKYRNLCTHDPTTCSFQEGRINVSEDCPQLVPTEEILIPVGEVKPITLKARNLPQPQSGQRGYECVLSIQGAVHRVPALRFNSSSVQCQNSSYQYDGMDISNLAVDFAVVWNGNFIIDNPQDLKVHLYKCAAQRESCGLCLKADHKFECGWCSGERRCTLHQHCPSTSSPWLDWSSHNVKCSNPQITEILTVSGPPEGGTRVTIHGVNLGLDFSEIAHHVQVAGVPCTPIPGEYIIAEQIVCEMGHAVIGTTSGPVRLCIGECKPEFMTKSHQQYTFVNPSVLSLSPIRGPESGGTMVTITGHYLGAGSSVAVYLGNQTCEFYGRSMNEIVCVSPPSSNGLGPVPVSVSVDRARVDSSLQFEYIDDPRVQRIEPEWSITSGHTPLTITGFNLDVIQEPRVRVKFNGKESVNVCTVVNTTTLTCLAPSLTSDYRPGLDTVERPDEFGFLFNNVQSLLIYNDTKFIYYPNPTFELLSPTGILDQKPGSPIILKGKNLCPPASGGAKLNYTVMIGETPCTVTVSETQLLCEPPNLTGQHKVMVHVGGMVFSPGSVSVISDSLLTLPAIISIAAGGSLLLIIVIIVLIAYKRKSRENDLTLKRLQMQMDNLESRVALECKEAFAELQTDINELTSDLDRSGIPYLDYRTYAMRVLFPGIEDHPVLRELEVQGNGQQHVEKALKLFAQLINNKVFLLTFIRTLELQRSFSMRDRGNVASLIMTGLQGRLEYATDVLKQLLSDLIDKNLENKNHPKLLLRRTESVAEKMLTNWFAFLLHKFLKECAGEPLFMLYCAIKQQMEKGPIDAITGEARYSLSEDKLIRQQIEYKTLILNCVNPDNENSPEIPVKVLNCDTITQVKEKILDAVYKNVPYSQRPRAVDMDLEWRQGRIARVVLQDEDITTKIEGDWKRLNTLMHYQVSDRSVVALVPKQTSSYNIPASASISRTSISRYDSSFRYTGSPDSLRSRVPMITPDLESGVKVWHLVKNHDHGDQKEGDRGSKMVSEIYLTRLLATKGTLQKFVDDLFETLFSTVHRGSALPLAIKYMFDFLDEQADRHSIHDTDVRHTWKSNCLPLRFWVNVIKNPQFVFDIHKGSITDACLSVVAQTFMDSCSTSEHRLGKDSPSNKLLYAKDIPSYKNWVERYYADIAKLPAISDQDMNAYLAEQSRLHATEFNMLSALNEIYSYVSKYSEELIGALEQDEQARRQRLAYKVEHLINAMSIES
T1 sequence (P70207 35-1894 A396E): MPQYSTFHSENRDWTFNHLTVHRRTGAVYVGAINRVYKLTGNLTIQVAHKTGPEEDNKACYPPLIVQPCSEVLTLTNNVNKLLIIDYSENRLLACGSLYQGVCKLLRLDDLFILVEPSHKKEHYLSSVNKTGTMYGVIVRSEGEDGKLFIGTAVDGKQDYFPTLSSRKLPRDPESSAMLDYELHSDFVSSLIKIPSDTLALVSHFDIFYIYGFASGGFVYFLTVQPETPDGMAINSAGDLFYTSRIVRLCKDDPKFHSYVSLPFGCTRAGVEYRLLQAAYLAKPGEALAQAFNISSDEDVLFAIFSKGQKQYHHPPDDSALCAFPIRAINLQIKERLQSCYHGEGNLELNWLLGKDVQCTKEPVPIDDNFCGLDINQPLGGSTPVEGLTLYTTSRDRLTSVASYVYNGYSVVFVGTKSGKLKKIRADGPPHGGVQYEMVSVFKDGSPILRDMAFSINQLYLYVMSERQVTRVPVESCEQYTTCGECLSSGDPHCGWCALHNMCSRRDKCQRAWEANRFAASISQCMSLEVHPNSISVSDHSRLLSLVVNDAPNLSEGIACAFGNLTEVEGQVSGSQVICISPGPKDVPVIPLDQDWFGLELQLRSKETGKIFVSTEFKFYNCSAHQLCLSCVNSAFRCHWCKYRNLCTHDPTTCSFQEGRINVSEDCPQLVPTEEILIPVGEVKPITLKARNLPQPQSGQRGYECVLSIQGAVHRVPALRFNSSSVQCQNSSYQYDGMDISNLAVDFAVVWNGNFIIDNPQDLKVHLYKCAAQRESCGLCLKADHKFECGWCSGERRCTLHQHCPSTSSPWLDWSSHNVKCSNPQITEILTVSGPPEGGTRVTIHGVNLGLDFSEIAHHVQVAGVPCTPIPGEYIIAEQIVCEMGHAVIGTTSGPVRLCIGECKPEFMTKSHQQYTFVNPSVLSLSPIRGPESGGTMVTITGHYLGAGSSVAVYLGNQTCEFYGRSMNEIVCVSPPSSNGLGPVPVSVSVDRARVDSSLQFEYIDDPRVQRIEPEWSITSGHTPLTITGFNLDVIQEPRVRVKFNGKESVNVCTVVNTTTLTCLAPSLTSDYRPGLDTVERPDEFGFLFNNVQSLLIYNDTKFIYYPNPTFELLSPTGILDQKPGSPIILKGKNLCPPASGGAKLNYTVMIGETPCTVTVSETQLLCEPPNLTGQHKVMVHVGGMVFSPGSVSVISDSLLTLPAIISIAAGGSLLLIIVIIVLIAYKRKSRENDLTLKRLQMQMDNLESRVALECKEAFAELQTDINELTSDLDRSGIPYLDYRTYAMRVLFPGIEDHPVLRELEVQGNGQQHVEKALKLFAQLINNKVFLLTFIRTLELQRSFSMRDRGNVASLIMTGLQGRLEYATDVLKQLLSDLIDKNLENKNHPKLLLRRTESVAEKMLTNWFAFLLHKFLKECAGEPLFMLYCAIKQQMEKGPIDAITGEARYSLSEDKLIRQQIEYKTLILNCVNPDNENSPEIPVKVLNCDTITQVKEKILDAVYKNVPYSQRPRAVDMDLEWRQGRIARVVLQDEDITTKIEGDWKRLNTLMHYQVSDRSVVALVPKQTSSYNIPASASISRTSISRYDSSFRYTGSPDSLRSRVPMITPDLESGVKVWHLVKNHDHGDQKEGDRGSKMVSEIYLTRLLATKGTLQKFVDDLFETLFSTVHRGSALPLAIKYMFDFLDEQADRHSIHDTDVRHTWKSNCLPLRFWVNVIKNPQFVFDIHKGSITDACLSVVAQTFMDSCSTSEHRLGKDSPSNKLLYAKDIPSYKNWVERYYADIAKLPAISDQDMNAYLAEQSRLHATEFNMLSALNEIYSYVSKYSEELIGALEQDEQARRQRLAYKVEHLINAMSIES

B1: Sema6A-AP (ligand, UniProt O35464 19-649, looked up)
chain: GFPEDSEPISISHGNYTKQYPVFVGHKPGRNTTQRHRLDIQMIMIMNRTLYVAARDHIYTVDIDTSHTEEIYCSKKLTWKSRQADVDTCRMKGKHKDECHNFIKVLLKKNDDTLFVCGTNAFNPSCRNYRVDTLETFGDEFSGMARCPYDAKHANIALFADGKLYSATVTDFLAIDAVIYRSLGDSPTLRTVKHDSKWLKEPYFVQAVDYGDYIYFFFREIAVEYNTMGKVVFPRVAQVCKNDMGGSQRVLEKQWTSFLKARLNCSVPGDSHFYFNILQAVTDVIRINGRDVVLATFSTPYNSIPGSAVCAYDMLDIANVFTGRFKEQKSPDSTWTPVPDERVPKPRPGCCAGSSSLEKYATSNEFPDDTLNFIKTHPLMDEAVPSIINRPWFLRTMVRYRLTKIAVDNAAGPYQNHTVVFLGSEKGIILKFLARIGSSGFLNGSLFLEEMNVYNPEKCSYDGVEDKRIMGMQLDRASGSLYVAFSTCVIKVPLGRCERHGKCKKTCIASRDPYCGWVRESGSCAHLSPLSRLTFEQDIERGNTDGLGDCHNSFVALNGHASSLYPSTTTSDSASRDGYESRGGMLDWNDLLEAPGSTDPLGAVSSHNHQDKKGVIRESYLKSNDQLVPVT
notes: Printed only as 'Sema6A-AP'; Order of the pieces follows the printed label only; not shown: alkaline phosphatase (AP) tag
Turning to B1, the binding result in assay [1] is recorded as “no binding”.

B2: recombinant Fc-dimerized AP-tagged Sema6A ectodomain (AP-Sema6Aect-Fc) (Fc fusion, mouse, UniProt O35464 18-648, looked up)
chain: AGFPEDSEPISISHGNYTKQYPVFVGHKPGRNTTQRHRLDIQMIMIMNRTLYVAARDHIYTVDIDTSHTEEIYCSKKLTWKSRQADVDTCRMKGKHKDECHNFIKVLLKKNDDTLFVCGTNAFNPSCRNYRVDTLETFGDEFSGMARCPYDAKHANIALFADGKLYSATVTDFLAIDAVIYRSLGDSPTLRTVKHDSKWLKEPYFVQAVDYGDYIYFFFREIAVEYNTMGKVVFPRVAQVCKNDMGGSQRVLEKQWTSFLKARLNCSVPGDSHFYFNILQAVTDVIRINGRDVVLATFSTPYNSIPGSAVCAYDMLDIANVFTGRFKEQKSPDSTWTPVPDERVPKPRPGCCAGSSSLEKYATSNEFPDDTLNFIKTHPLMDEAVPSIINRPWFLRTMVRYRLTKIAVDNAAGPYQNHTVVFLGSEKGIILKFLARIGSSGFLNGSLFLEEMNVYNPEKCSYDGVEDKRIMGMQLDRASGSLYVAFSTCVIKVPLGRCERHGKCKKTCIASRDPYCGWVRESGSCAHLSPLSRLTFEQDIERGNTDGLGDCHNSFVALNGHASSLYPSTTTSDSASRDGYESRGGMLDWNDLLEAPGSTDPLGAVSSHNHQDKKGVIRESYLKSNDQLVPV
notes: range 18-648; Used as culture supernatant of transfected HEK293T cells; also called Fc-dimerized recombinant AP-tagged ectodomain of Sema6A; not shown: alkaline phosphatase (AP) tag from the Aptag-4 vector; Fc from the pEF-Fc expression vector
Molecule B2 displayed a Kd in assay [2] of 3.21 nM.

As a reminder, the Kd is the equilibrium constant for the complex coming apart.
